Test results as given in patent US20260242478A1 (published 2026).

B1: Phage-1359 (peptide)
peptide: MCSAGAMYKWPLCL
notes: Clonal phage of the Peptide-92 library, tested as crude supernatant; not shown: fused to the pIII filament of the bacteriophage
B2: Phage-1358 (peptide)
peptide: TCAAGAMWAWPVCL
notes: as for B1
B3: Phage-1355 (peptide)
peptide: LCSAGAMWPWPTCL
notes: as for B1
B4: Phage-1356 (peptide)
peptide: LCSAGAMYSWPTCL
notes: as for B1
B5: Peptide-283 (peptide)
peptide: TVAYCKPAWMCQGF
notes: From the Peptide-180 optimisation phage library
B6: Peptide-263 (peptide)
peptide: AVKACIPEWMCIGF
notes: as for B5
B7: Peptide-286 (peptide)
peptide: VLKYCIPDWMCAGI
notes: as for B5
B8: Peptide-271 (peptide)
peptide: EDILCKPKWMCEGF
notes: as for B5
B9: Peptide-285 (peptide)
peptide: VERLCTPAWMCHGF
notes: as for B5
B10: Peptide-282 (peptide)
peptide: IVVKCVPSWMCEGF
notes: as for B5
B11: Peptide-284 (peptide)
peptide: TEVRCTPPWMCLGF
notes: as for B5
B12: Peptide-268 (peptide)
peptide: VEKVCKPVWMCVGF
notes: as for B5
B13: Peptide-274 (peptide)
peptide: ITPVCKPLWMCSGL
notes: as for B5
B14: Peptide-270 (peptide)
peptide: ESRLCVPAWMCAGF
notes: as for B5
B15: Phage-446 (peptide)
peptide: MDWCPRDRWDDCFN
notes: Clone of the Peptide-9 optimisation library
B16: Phage-442 (peptide)
peptide: IYWCPIDRWNDCYN
notes: as for B15
B17: Phage-443 (peptide)
peptide: MDWCPMTRWNDCYF
notes: as for B15
B18: Phage-445 (peptide)
peptide: MDWCPRARWHDCFF
notes: as for B15
B19: Phage-450 (peptide)
peptide: EDWCPTDVWPYCFS
notes: as for B15
B20: Phage-448 (peptide)
peptide: MAWCPWASFDECLA
notes: as for B15
B21: Phage-449 (peptide)
peptide: MVDCPLISFDECLA
notes: as for B15
B22: Phage-447 (peptide)
peptide: MDWCPRDRWDVCYY
notes: as for B15

Each binder was assayed against T1, Anti-CD28 Fab (SEQ ID NOs: 696, 697) (assay: phage binding ELISA; biotinylated anti-CD28 Fab on neutravidin plate, clonal phage supernatant, anti-M13 HRP).
T1 construct: In the phage ELISA the Fab was biotinylated and captured on neutravidin coated plates
T1 sequence (VH, as listed by the source, chain 1 of 2): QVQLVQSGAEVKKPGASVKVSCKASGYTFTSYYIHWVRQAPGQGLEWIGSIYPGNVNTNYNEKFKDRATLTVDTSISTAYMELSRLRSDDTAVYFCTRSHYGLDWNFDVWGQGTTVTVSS
T1 sequence (VL, as listed by the source, chain 2 of 2): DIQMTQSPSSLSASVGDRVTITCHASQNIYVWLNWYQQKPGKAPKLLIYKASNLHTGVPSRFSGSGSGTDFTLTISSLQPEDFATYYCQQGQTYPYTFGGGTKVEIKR
Description: Clonal phage were harvested as crude supematants and screened via standard ELISAs. […] Prior to the addition of clonal phage, wells were incubated with blocking buffer and CD28 antigen or blocking buffer alone. Without washing or aspirating, clonal phage supematants were then added to the wells and incubated for a short time. Wells were then washed followed by detection of bound phage using a horse radish conjugated anti-M13 antibody.
For B1, the “Anti-CD28 Fab (SEQ ID NOs: 696, 697) signal” value was 2.32.
For B2, the “Anti-CD28 Fab (SEQ ID NOs: 696, 697) signal” value was 2.32.
B3 was tested, and the “Anti-CD28 Fab (SEQ ID NOs: 696, 697) signal” value was 2.39.
With B4 the “Anti-CD28 Fab (SEQ ID NOs: 696, 697) signal” value was 2.39.

What follows are binders tested against T2, PSMA Fab (assay: binding ELISA; PSMA Fab titrated on plate-captured biotinylated peptide).
T2 construct: also called 006 PSMA Fab; anti-PSMA Fab
With B5 the EC50 was 7.8 nM.
B6 was tested, and the EC50 was 8.4 nM.
With B7 the EC50 was 4 nM.
For B8, the EC50 was 5.7 nM.
Binder B9 has an EC50 of 25 nM.
In the case of B10, the EC50 is reported as 9.2 nM.
B11 showed an EC50 of 20 nM.
B12 showed an EC50 of 5.1 nM.
B13 showed an EC50 of 4 nM.
B14 gave an EC50 of 17.3 nM.

Each binder was assayed against T2, PSMA Fab (assay: competition ELISA; peptide 0-100 µM with 0.3 nM PSMA Fab on plate-captured biotinylated PSMA).
B5 was tested, and the IC50 was 820 nM.
B6 gave an IC50 of 620 nM.
In the case of B7, the IC50 is reported as 640 nM.
Binder B8 has an IC50 of 300 nM.
Work on B9 yielded an IC50 of 710 nM.
With B10 the IC50 was 190 nM.
Work on B11 yielded an IC50 of 970 nM.
In the case of B12, the IC50 is reported as 250 nM.
B13 showed an IC50 of 330 nM.
B14 gave an IC50 of 700 nM.

These binders were tested against T1, Anti-CD28 Fab (SEQ ID NOs: 696, 697) (assay: phage binding ELISA on captured anti-CD28 Fab; wells pre-incubated with CD28 antigen as competitor).
Description: Clonal phage were harvested as crude supematants and screened via standard ELISAs. […] Prior to the addition of clonal phage, wells were incubated with blocking buffer and CD28 antigen or blocking buffer alone. Without washing or aspirating, clonal phage supematants were then added to the wells and incubated for a short time. Wells were then washed followed by detection of bound phage using a horse radish conjugated anti-M13 antibody. Clonal phage of interest were then sent for sequence analysis.
In the case of B1, the “Anti-CD28 Fab signal in the presence of CD28” value (shortened to “Anti-CD28 Fab signal”) is reported as 0.05.
In the case of B2, the “Anti-CD28 Fab signal” value is reported as 0.09.
For B3, the “Anti-CD28 Fab signal” value was 0.08.
For B4, the “Anti-CD28 Fab signal” value was 0.12.

The binders below were run against T3, Anti-CD28 scFv (VH - linker 1 - VL) (biotinylated (site not stated)) (assay: clonal phage ELISA on anti-CD28 scFv plate; wells pre-incubated with soluble CD28 as competitor).
T3 sequence (scFv, as listed by the source): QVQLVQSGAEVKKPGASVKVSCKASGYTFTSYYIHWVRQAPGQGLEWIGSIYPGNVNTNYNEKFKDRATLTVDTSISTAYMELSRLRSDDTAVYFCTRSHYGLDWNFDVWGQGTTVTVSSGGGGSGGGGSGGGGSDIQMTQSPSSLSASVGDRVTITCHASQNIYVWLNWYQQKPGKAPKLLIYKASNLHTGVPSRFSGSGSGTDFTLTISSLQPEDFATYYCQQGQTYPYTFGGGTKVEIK
For B15, the “CD28 scFv signal in presence of CD28” value was 0.077.
For B16, the “CD28 scFv signal in presence of CD28” value was 0.164.
For B17, the “CD28 scFv signal in presence of CD28” value was 0.078.
B18 was tested, and the “CD28 scFv signal in presence of CD28” value was 0.138.
With B19 the “CD28 scFv signal in presence of CD28” value was 0.157.
For B20, the “CD28 scFv signal in presence of CD28” value was 0.109.
B21 was tested, and the “CD28 scFv signal in presence of CD28” value was 0.076.
With B22 the “CD28 scFv signal in presence of CD28” value was 0.073.

These binders were tested against T3, Anti-CD28 scFv (VH - linker 1 - VL) (assay: clonal phage ELISA; biotinylated anti-CD28 scFv on neutravidin plate, bound phage detected with anti-M13 HRP).
Description: Clonal phage were harvested as crude supernatants and screened via standard enzyme linked immunosorbent assays (ELISAs). […] Prior to the addition of clonal phage, wells were incubated with blocking buffer and CD28 soluble protein or blocking buffer alone. Without washing or aspirating, clonal phage supernatants were then added to the wells and incubated for a short time. Wells were then washed followed by detection of bound phage using a horse radish peroxidase conjugated anti-M13 antibody.
In the case of B15, the “CD28 scFv signal” value is reported as 0.45.
B16 was tested, and the “CD28 scFv signal” value was 0.867.
For B17, the “CD28 scFv signal” value was 0.671.
In the case of B18, the “CD28 scFv signal” value is reported as 0.497.
For B19, the “CD28 scFv signal” value was 0.711.
B20 was tested, and the “CD28 scFv signal” value was 0.089.
For B21, the “CD28 scFv signal” value was 0.07.
With B22 the “CD28 scFv signal” value was 0.074.

These binders were tested against T2, PSMA Fab (assay: BLI (Octet); PSMA Fab on sensor-loaded biotinylated peptide, 1:1 model).
With B5 the “Off rate t1/2” value was 1.4 min.
In the case of B6, the “Off rate t1/2” value is reported as 2.3 min.
For B7, the “Off rate t1/2” value was 3.3 min.
For B8, the “Off rate t1/2” value was 3.3 min.
For B9, the “Off rate t1/2” value was 1.1 min.
For B10, the “Off rate t1/2” value was 1.9 min.
In the case of B11, the “Off rate t1/2” value is reported as 1.4 min.
For B12, the “Off rate t1/2” value was 3 min.
For B13, the “Off rate t1/2” value was 3.3 min.
In the case of B14, the “Off rate t1/2” value is reported as 1.4 min.
